From IntAct's records for PubMed 10798620

Columns and labels:
gdir_arath GDI1 [1] = target: gdir_arath GDI1 (UniProt Q9SFC6)
gdir_arath GDI1 [2] = target: gdir_arath GDI1 (UniProt Q9SFC6); remark: listed apart in the source

Chain of gdir_arath GDI1 (Q9SFC6 whole entry): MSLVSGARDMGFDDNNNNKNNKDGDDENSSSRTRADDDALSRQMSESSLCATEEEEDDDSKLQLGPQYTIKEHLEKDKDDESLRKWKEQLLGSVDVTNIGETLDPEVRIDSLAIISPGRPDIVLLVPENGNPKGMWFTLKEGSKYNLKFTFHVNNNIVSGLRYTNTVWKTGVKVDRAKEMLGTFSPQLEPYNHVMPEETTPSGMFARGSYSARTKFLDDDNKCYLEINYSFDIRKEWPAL
Chain of Rac-like GTP-binding protein ARAC5 (Arabidopsis thaliana (Mouse-ear cress)), Q38937 T20N (Q38937 whole entry T20N): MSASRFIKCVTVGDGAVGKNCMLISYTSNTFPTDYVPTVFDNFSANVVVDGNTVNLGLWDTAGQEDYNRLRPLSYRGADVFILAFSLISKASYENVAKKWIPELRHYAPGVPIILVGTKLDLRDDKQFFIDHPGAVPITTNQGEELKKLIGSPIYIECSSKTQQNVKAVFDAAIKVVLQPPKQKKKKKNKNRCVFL
Chain of Rac-like GTP-binding protein ARAC3 (Arabidopsis thaliana (Mouse-ear cress)), Q38912 T20N (Q38912 whole entry T20N): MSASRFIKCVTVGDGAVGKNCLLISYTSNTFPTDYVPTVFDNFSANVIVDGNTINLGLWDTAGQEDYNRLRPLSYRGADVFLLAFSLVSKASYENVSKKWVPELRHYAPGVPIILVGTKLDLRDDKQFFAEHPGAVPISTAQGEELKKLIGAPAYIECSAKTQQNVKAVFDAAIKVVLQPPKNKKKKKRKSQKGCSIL

| Substance | effect of a mutation on the interaction (gdir_arath GDI1 [1]) | effect of a mutation on the interaction (gdir_arath GDI1 [2]) |
| --- | --- | --- |
| Rac-like GTP-binding protein ARAC3 (Arabidopsis thaliana (Mouse-ear cress)), Q38912 T20N | disrupting interaction |  |
| Rac-like GTP-binding protein ARAC5 (Arabidopsis thaliana (Mouse-ear cress)), Q38937 T20N |  | disrupting interaction |
